This experiment has as its target His-Tagged rhFc(gamma) receptor I (recombinant human Fc(gamma)R-I; Acro Biosystems, catalog# FCA-H52H1) (human). In words: ELISA, control IgG coated, His-tagged rhFc(gamma)RI in solution, anti-His-HRP. (In an ELISA, binding on a coated surface is turned into a signal by an enzyme label.)

Chain of His-Tagged rhFc(gamma) receptor I (recombinant human Fc(gamma)R-I; Acro Biosystems, catalog# FCA-H52H1) (human) (P12314 16-292): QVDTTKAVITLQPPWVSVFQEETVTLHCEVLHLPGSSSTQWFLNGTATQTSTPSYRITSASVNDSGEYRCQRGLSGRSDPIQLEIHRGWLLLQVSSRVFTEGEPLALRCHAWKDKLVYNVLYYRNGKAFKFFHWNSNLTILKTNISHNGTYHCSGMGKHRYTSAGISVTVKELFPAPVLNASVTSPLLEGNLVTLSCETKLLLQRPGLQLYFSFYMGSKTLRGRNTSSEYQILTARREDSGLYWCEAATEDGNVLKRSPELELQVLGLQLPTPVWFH

Turning to “Dog IgG, Control Rockland-Inc, Cat# 004-0102-005 (antibody)”, the OD450 at 222 ng/ml Fc(gamma) RI came to 0.686 OD450.
